Data on 4 substances can be found in patent US20090005257A1.

The target of assay [1] is protein A (UniProt P38507). Put plainly: phage ELISA on protein A, heated 80 C against unheated, three data points. Background: In an ELISA, binding on a coated surface is turned into a signal by an enzyme label.
For assay [2], the target named is protein A (UniProt P38507). The assay is described as follows: phage ELISA screen on protein A, heated 80 C against unheated (Section 4); mean of clones with this mutation.

DP47 F100nV, sequence (VH): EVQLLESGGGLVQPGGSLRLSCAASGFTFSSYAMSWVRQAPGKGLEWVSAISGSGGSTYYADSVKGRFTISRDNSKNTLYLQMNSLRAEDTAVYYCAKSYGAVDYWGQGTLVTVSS

For the substance DP47 F100nV, the Refoldability on phage (protein A binding retained after heating) in the assay with protein A [1] turned out to be 2%. DP47 F100nV/Y102S: in the assay with protein A [1], the Refoldability on phage (protein A binding retained after heating) came to 2%. The substance DP47-F27C showed a mean % refolding (pA-ELISA) with protein A [2] of 56%. The same measure, in the same setting: the result for DP47-G54P reads 28%.
